From article PMC10668032, “Altered binding affinity of SIX1-Q177R correlates with enhanced WNT5A and WNT pathway effector expression in Wilms tumor” come the findings set out here.

In this data set the target is T1, SIX1-Q177R (human, UniProt Q15475 1-284, Q177R).
T1 sequence: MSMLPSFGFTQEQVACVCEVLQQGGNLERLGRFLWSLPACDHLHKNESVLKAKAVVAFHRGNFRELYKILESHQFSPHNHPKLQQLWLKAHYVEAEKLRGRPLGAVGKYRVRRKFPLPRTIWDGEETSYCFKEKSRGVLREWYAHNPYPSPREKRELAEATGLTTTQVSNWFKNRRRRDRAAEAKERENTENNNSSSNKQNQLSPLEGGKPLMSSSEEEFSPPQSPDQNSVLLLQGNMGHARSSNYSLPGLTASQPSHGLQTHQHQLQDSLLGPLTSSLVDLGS
Put plainly: EMSA; EMSA: Active Motif Gelshift or Thermo LightShift chemiluminescent kit binding buffer, no glycerol, no poly d(I-C), RT 25 min; protein dilutions 1-300 nM; 6% gel in 0.5x TBE; pH and salt not given. Conditions: protein: recombinant; tags: N-terminal HA from pGEX-6p1-N-HA (GST removed with PreScission); label: biotin 3' end (both strands, Pierce 3' end-labeling kit); blunt.

B1: WNT5A_promoter_EMSA (dsDNA)
DNA 1: CCCGCCCTAAGTGTCAAATTTCCTCCAGGGGAG
DNA 2: CTCCCCTGGAGGAAATTTGACACTTAGGGCGGG
For B1, the binding signal was ~10 fold higher affinity than SIX1 on same probe.
